Laboratory results taken from article PMC8112011, “Adaptive laboratory evolution accelerated glutarate production by Corynebacterium glutamicum” (Microbial Cell Factories, 2021).
Where a chain is given by its changes, count along the chain named. Names and notes keep the numbering of the source.

B1: GltBD (GOGAT, L-glutamic acid-2-oxoglutarate aminotransferase) (Corynebacterium glutamicum ATCC 13032) (protein)
chain: CGVAFIADIHGRPSRSIVDRALEALRNIDHRGAAGAEKNTGDGAGILMQIPDGFYREVSGIELPEAGEYATGIAFLPRGRMAMMDAQKEIERIAKQEGADVLGWRMVPFDSRDLGSMAEEAMPSFAQIFLTVPGKSGEDLDRVMFFIRKRCERELGTTNGRDTVYFPSLSSRTIIYKGMLTTLQLEGFFEDLGDARLESAIAIVHSRFSTNTFPSWPLAHPYRFVAHNGEINTVRGNENWMRAREALIKNDKLGNLSSVLPICTPEGSDTARFDEALELLHLGGYSLPHAVAMMIPQAWEHNKTLSPELRDFYEYHSCLMEPWDGPAALAFTDGRFVGAVLDRNGLRPGRITITDSGLVVMASESGVLDLREESVVKRTRVQPGRMFLVDTAEGRIVEDEEIKQKLSEAQPYGEWIRDNFVHLDRLPQTRYNYMAHSRAVLRQRVFGITEEDVDLLLLPMARQGAEAIGSMGSDTPIAALSQRPRMLYDFFAQRFAQVTNPPLDSIREKPVTSMFTLLGAQSDVLNPGPDAARRIRLESPIIDNHELATLINANAHGEWDSFGAAVISGLYPVAHHGAGMKAAIARVRREVSEAIRNGKTLIVLSDRESDERMAPIPALLLTSAVHQYLVQQRTRTQCSLVVESGDAREVHHLAMLIGFGADAINPYMAFETIDELRMKGQLGDLSLDEASRNYIKAATTGVLKVMSKMGIATVSSYRGAQLADVTGLHQDLLDNYFGGIASPISGIGLDEVAADVEARHRSAFLPRPEEHAHRELDLGGEYKWRREGEYHLFNPETIFKLQHATRSGSYEIFKDYTRKVDDQSTRLGTIRGLFEFSTDRKPISVSEVEPVSEIVKRFSTGAMSYGSISAEAHEVLAIAMNRLGGMSNSGEGGEDARRFDVEPNGDWKRSAIKQVASGRFGVTSHYLNNCTDIQIKMAQGAKPGEGGQLPPNKVYPWVAEVRITTPGVGLISPPPHHDIYSIEDLAQLIHDLKNANPRARIHVKLVAEQGVGTVAAGVSKAHADVVLISGHDGGTGASPLTSLKHAGGPWELGLAETQQTLLLNGLRDRIRVQCDGQLKTGRDVVIAALLGAEEFGFATAPLVVEGCIMMRVCHLDTCPVGIATQNPDLRSKFTGKAEHVVNFFTFIAQEVREYLAQLGFRSIDEAVGQAQVLRKRSGIPADSRAAHLDLSPIFHRPETPHFPTQDVRCTKTQEHSLEKALDNAFIDKASDTITRAAAGVETSIVIDSSISNVNRSVGTMLGSAVSRVAGAQGLPDGTITLNLQGCAGNSFGAFIPRGITINLTGDANDFVGKGLSGGKIVIKPSAQAPKQLKNNPNIIAGNVLGYGATSGELFIRGQVGERFCVRNSGATAVVEGIGNHGCEYMTGGRVLVLGPVGENFGAGMSGGIAYLANSPDLNQKINGELVDVVPLSADDLTWADELIARHRELTGSETKLRAQDLVKIMPRDFQKVLNIIETAHAEGQDPAIKIMEAVS
notes: full-length gltBD on plasmid pEKEx3, overexpressed in C. glutamicum GRLys1ΔgltB (chromosomal gltB deleted); untagged; crude extract; with Glutamate synthase [NADPH] small chain
B2: GltBD (GOGAT, L-glutamic acid-2-oxoglutarate aminotransferase) (Corynebacterium glutamicum ATCC 13032; E686Q) (protein)
chain: B1 chain with E671Q
notes: as for B1

Substrate: NC(=O)CC[C@H](N)C(=O)O
Assay: cells, lysate or membranes
Type: biochemical, Corynebacterium glutamicum
Conditions: 1.5 mM NADPH, 35 mM 2-oxoglutarate, 100 mM phosphate pH 7.0, 30 °C

Row | Protein | Km [µM]
1 | B1 | 250 ± 30
2 | B2 | 520 ± 40
